The assay has as its target HA-Halo-mGluR3 (rat), P31422. As to the kind of experiment: single-molecule pulldown. The note with it: remark: other sources report otherwise.

B1: HA-Halo-mGluR3, P31422 23-879 (receptor)
chain: LGDHNFMRREIKIEGDLVLGGLFPINEKGTGTEECGRINEDRGIQRLEAMLFAIDEINKDNYLLPGVKLGVHILDTCSRDTYALEQSLEFVRASLTKVDEAEYMCPDGSYAIQENIPLLIAGVIGGSYSSVSIQVANLLRLFQIPQISYASTSAKLSDKSRYDYFARTVPPDFYQAKAMAEILRFFNWTYVSTVASEGDYGETGIEAFEQEARLRNICIATAEKVGRSNIRKSYDSVIRELLQKPNARVVVLFMRSDDSRELIAAANRVNASFTWVASDGWGAQESIVKGSEHVAYGAITLELASHPVRQFDRYFQSLNPYNNHRNPWFRDFWEQKFQCSLQNKRNHRQVCDKHLAIDSSNYEQESKIMFVVNAVYAMAHALHKMQRTLCPNTTKLCDAMKILDGKKLYKEYLLKINFTAPFNPNKGADSIVKFDTFGDGMGRYNVFNLQQTGGKYSYLKVGHWAETLSLDVDSIHWSRNSVPTSQCSDPCAPNEMKNMQPGDVCCWICIPCEPYEYLVDEFTCMDCGPGQWPTADLSGCYNLPEDYIKWEDAWAIGPVTIACLGFLCTCIVITVFIKHNNTPLVKASGRELCYILLFGVSLSYCMTFFFIAKPSPVICALRRLGLGTSFAICYSALLTKTNCIARIFDGVKNGAQRPKFISPSSQVFICLGLILVQIVMVSVWLILETPGTRRYTLPEKRETVILKCNVKDSSMLISLTYDVVLVILCTVYAFKTRKCPENFNEAKFIGFTMYTTCIIWLAFLPIFYVTSSDYRVQTTTMCISVSLSGFVVLGCLFAPKVHIVLFQPQKNVVTHRLHLNRFSVSGTATTYSQSSASTYVPTVCNGREVLDSTTSSL
modifications: here or on the partner: Halo tag labeled with CA-SS-Alexa-488; Halo tag labeled with CA-SS-Alexa-488
As to B1, the stoichiometry N amounted to 2.

The values are drawn from paper PMC10699790.
